Test results taken from patent US20260209359A1 (NEXTERA, published 2026).

Legend:
[1] = biological target: T1, HLA-A*02:01/MAGE-A4^230-239 displayed on cells (MAGE-A4^230-239 pulsed T2 cells; NCI-H1703, A375, THP1, … (human, UniProt P04439 25-365 at identity 0.94); P61769 21-119); test: cell-based or functional assay
[2] = biological target: T1, HLA-A*02:01/MAGE-A4^230-239 displayed …; test: cell-based or functional assay; remark: listed apart in the source
[3] = biological target: T2, HLA-A*02:01/MAGE-A4^230-239, soluble recombinant biotinylated pHLA (human, UniProt P04439 25-299 at identity 0.94); P61769 21-119, biotinylated); test: ELISA, soluble biotinylated pHLA on neutravidin, scDb, protL-HRP
T2 construct: Empty biotinylated HLA-A2 monomers (Tetramer Shop) loaded with synthetic peptide; also called MAGE-A4 pMHC; MAGE-A4-pHLA
Method: ELISA plates were coated with 5 μg/mL NeutrAvidin in PBS and incubated 16 h/4° C. (step (a)) and blocked with 5% skim milk powder in PBST for 1 h/room temperature (RT) (step (c)). […] Bound phage particles were detected with an anti-Fd antibody (anti-M13-HRP (Amersham Biosciences)), whereas bound IgG1 and scDb was detected with HRP conjugated protein L (Genscript) (step (i)). […] Plates were developed with TMB solution and read at 450 nm using a microplate reader (step (k)). Between each layer, the plates were washed 3× with PBST (steps (b), (d), (f), (h), and (j)).

[4] = biological target: T1, HLA-A*02:01/MAGE-A4^230-239 displayed …; test: cell-based or functional assay; remark: listed apart in the source

B1: AM16 scDb (bispecific antibody)
chain: DIQLTQSPSSLSASVGDRVTISCRASQSIMTYLNWYQQRPGKAPKLLIYSASRLQSGVPSRFSGSGYGTEFTLTISSLQPEDFATYYCQQSYSTPFTFGPGTKVDIKGGGGSEVQLQQSGPELVKPGASMKISCKASGYSFTGYTMNWVKQSHGKNLEWMGLINPYKGVSTYNQKFKDKATLTVDKSSSTAYMELLSLTSEDSAVYYCARSGYYGDSDWYFDVWGAGTTVTVSSGGGGSGGGGSGGGGSDIQMTQTTSSLSASLGDRVTISCRASQDIRNYLNWYQQKPDGTVKLLIYYTSRLHSGVPSKFSGSGSGTDYSLTISNLEQEDIATYFCQQGNTLPWTFAGGTKLEIKGGGGSQVQLVQSGAEVKKPGASVKVSCKVSGYTLTELSMHWVRQAPGKGLEWMGGFDPEDGETIYAQKFQGRVTMTEDTSTDTAYMELSSLRSEDTAVYYCATDQGSSWGFYWGQGTLVTVSS
notes: as m68
IFNγ EC50 vs. target positive cells (pM) [1]: 12.3 pM | EC50 vs. NCI-H1703 (pM), T-cell specific killing [2]: 5.3 pM | EC50 [3]: 1.85 nM

B2: AMC8 scDb (bispecific antibody)
chain: DIRLTQSPSSLSASVGDRVTMTCRASQTVATYVNWYQQKPGRAPKLLMYVTSIRQSEVPSRFSGDGFGTDFTLTINPLQPDDFATYYCQQAYSTPVTFGQGTKLEIKGGGGSEVQLQQSGPELVKPGASMKISCKASGYSFTGYTMNWVKQSHGKNLEWMGLINPYKGVSTYNQKFKDKATLTVDKSSSTAYMELLSLTSEDSAVYYCARSGYYGDSDWYFDVWGAGTTVTVSSGGGGSGGGGSGGGGSDIQMTQTTSSLSASLGDRVTISCRASQDIRNYLNWYQQKPDGTVKLLIYYTSRLHSGVPSKFSGSGSGTDYSLTISNLEQEDIATYFCQQGNTLPWTFAGGTKLEIKGGGGSQVQLVQSGAEVKKPGASVKVSCKVSGYTLTELSMHWVRQAPGKGLEWMGGFDPEDGETIYAQKFQGRVTMTEDTSTDTAYMELSSLRSEDTAVYYCATDQGASWGFYWGQGTLVTVSS
notes: as m68
IFNγ EC50 vs. target positive cells (pM) [1]: 7.7 pM | EC50 vs. A375 (pM), T-cell specific killing [4]: 1.6 pM | EC50 vs. NCI-H1703 (pM), T-cell specific killing [2]: 2.51 pM | EC50 [3]: 0.88 nM

B3: AM3 scDb (bispecific antibody)
chain: DIRVTQSPSSLSASVGDRVTITCRADHHIFWYLNWYQQKPGKAPKLLIYAASSLQSGVPSRFSGSGSGTDFTLTISSLQPEDFATYYCQQSYSTPYTFGQGTKLEIKGGGGSEVQLQQSGPELVKPGASMKISCKASGYSFTGYTMNWVKQSHGKNLEWMGLINPYKGVSTYNQKFKDKATLTVDKSSSTAYMELLSLTSEDSAVYYCARSGYYGDSDWYFDVWGAGTTVTVSSGGGGSGGGGSGGGGSDIQMTQTTSSLSASLGDRVTISCRASQDIRNYLNWYQQKPDGTVKLLIYYTSRLHSGVPSKFSGSGSGTDYSLTISNLEQEDIATYFCQQGNTLPWTFAGGTKLEIKGGGGSQVQLVQSGAEVKKPGASVKVSCKVSGYTLTELSMHWVRQAPGKGLEWMGGFDPEDGETIYAQKFQGRVTMTEDTSTDTAYMELSSLRSEDTAVYYCATDQGSSWGFYWGQGTLVTVSS
notes: as m68
IFNγ EC50 vs. target positive cells (pM) [1]: 5.8 pM | EC50 vs. NCI-H1703 (pM), T-cell specific killing [2]: 3.4 pM | EC50 [3]: 0.48 nM

B4: AM4 scDb (bispecific antibody)
chain: DIRVTQSPSSLSASVGDRVTITCRADIDIRWYLNWYQQKPGKAPKLLIYAASSLQSGVPSRFSGSGSGTDFTLTISSLQPEDFATYYCQQSYSTPYTFGQGTKLEIKGGGGSEVQLQQSGPELVKPGASMKISCKASGYSFTGYTMNWVKQSHGKNLEWMGLINPYKGVSTYNQKFKDKATLTVDKSSSTAYMELLSLTSEDSAVYYCARSGYYGDSDWYFDVWGAGTTVTVSSGGGGSGGGGSGGGGSDIQMTQTTSSLSASLGDRVTISCRASQDIRNYLNWYQQKPDGTVKLLIYYTSRLHSGVPSKFSGSGSGTDYSLTISNLEQEDIATYFCQQGNTLPWTFAGGTKLEIKGGGGSQVQLVQSGAEVKKPGASVKVSCKVSGYTLTELSMHWVRQAPGKGLEWMGGFDPEDGETIYAQKFQGRVTMTEDTSTDTAYMELSSLRSEDTAVYYCATDQGSSWGFYWGQGTLVTVSS
notes: as m68
IFNγ EC50 vs. target positive cells (pM) [1]: 4.5 pM | EC50 vs. NCI-H1703 (pM), T-cell specific killing [2]: 3.1 pM | EC50 [3]: 0.28 nM

B5: AM18 scDb (bispecific antibody)
chain: DIRLTQSPSSLSVSVGDRVTITCRASEDIRYYVNWYQQKPGKAPKLLIYAASSLQSGVPSRFSGSGSGTDFTLTISSLQPEDFATYYCQQSYSTPYTFGQGTKLEIKGGGGSEVQLQQSGPELVKPGASMKISCKASGYSFTGYTMNWVKQSHGKNLEWMGLINPYKGVSTYNQKFKDKATLTVDKSSSTAYMELLSLTSEDSAVYYCARSGYYGDSDWYFDVWGAGTTVTVSSGGGGSGGGGSGGGGSDIQMTQTTSSLSASLGDRVTISCRASQDIRNYLNWYQQKPDGTVKLLIYYTSRLHSGVPSKFSGSGSGTDYSLTISNLEQEDIATYFCQQGNTLPWTFAGGTKLEIKGGGGSQVQLVQSGAEVKKPGASVKVSCKVSGYTLTELSMHWVRQAPGKGLEWMGGFDPEDGETIYAQKFQGRVTMTEDTSTDTAYMELSSLRSEDTAVYYCATDQGSSWGFYWGQGTLVTVSS
notes: as m68
IFNγ EC50 vs. target positive cells (pM) [1]: 9.5 pM | EC50 vs. NCI-H1703 (pM), T-cell specific killing [2]: 4.4 pM | EC50 [3]: 0.51 nM

B6: AM5 scDb (bispecific antibody)
chain: DIRVTQSPSSLSASVGDRVTITCRASQSISSYLNWYQQKPGKAPKLLIYAASSLQSGVPSRFSGSGSGTDFTLTISSLQPEDFATYYCQQAYRIPYTFGQGTKLEIKGGGGSEVQLQQSGPELVKPGASMKISCKASGYSFTGYTMNWVKQSHGKNLEWMGLINPYKGVSTYNQKFKDKATLTVDKSSSTAYMELLSLTSEDSAVYYCARSGYYGDSDWYFDVWGAGTTVTVSSGGGGSGGGGSGGGGSDIQMTQTTSSLSASLGDRVTISCRASQDIRNYLNWYQQKPDGTVKLLIYYTSRLHSGVPSKFSGSGSGTDYSLTISNLEQEDIATYFCQQGNTLPWTFAGGTKLEIKGGGGSQVQLVQSVAEVKKPGASVKVSCKVSGYTLTELSMHWVRQAPGKGLEWMGGFDPEDGETIYAQKFQGRVTMTEDTSTDTAYMELSSLRSEDTAVYYCAADQGSSWGFYWGQGTLVTVSS
notes: as m68
IFNγ EC50 vs. target positive cells (pM) [1]: 9 pM | EC50 vs. NCI-H1703 (pM), T-cell specific killing [2]: 6.4 pM | EC50 [3]: 1.03 nM

B7: AMC11 scDb (bispecific antibody)
chain: DIRVTQSPSSLSASVGDRVTITCRASQNIMWYLNWYQQKPGKAPKLLIYAASSLQSGVPSRFSGSGSGTDFTLTISSLQPEDFATYYCQQAYRIPYTFGQGTKLEIKGGGGSEVQLQQSGPELVKPGASMKISCKASGYSFTGYTMNWVKQSHGKNLEWMGLINPYKGVSTYNQKFKDKATLTVDKSSSTAYMELLSLTSEDSAVYYCARSGYYGDSDWYFDVWGAGTTVTVSSGGGGSGGGGSGGGGSDIQMTQTTSSLSASLGDRVTISCRASQDIRNYLNWYQQKPDGTVKLLIYYTSRLHSGVPSKFSGSGSGTDYSLTISNLEQEDIATYFCQQGNTLPWTFAGGTKLEIKGGGGSQVQLVQSGAEVKKPGASVKVSCKVSGYTLTELSMHWVRQAPGKGLEWMGGFDPEDGETIYAQKFQGRVTMTEDTSTDTAYMELSSLRSEDTAVYYCATDQGSSWGFYWGQGTLVTVSS
notes: as m68
IFNγ EC50 vs. target positive cells (pM) [1]: 8.5 pM | EC50 vs. A375 (pM), T-cell specific killing [4]: 2.3 pM | EC50 vs. NCI-H1703 (pM), T-cell specific killing [2]: 0.72 pM | EC50 [3]: 0.81 nM

B8: AM12 scDb (bispecific antibody)
chain: DIRVTQSPSSLSASVGDRVTITCRASQNIMWYLNWYQQKPGKAPKLLIYAASSLQSGVPSRFSGSGSGTDFTLTISSLQPEDFATYYCQQSYSTPYTFGQGTKLEIKGGGGSEVQLQQSGPELVKPGASMKISCKASGYSFTGYTMNWVKQSHGKNLEWMGLINPYKGVSTYNQKFKDKATLTVDKSSSTAYMELLSLTSEDSAVYYCARSGYYGDSDWYFDVWGAGTTVTVSSGGGGSGGGGSGGGGSDIQMTQTTSSLSASLGDRVTISCRASQDIRNYLNWYQQKPDGTVKLLIYYTSRLHSGVPSKFSGSGSGTDYSLTISNLEQEDIATYFCQQGNTLPWTFAGGTKLEIKGGGGSQVQLVQSGAEVKKPGASVKVSCKVSGYTLTELSMHWVRQAPGKGLEWMGGFDPEQGETIYAQKFQGRVTMTEDTSTDTAYMELSSLRSEDTAVYYCATDQGASWGFYWGQGTLVTVSS
notes: as m68
IFNγ EC50 vs. target positive cells (pM) [1]: 6.4 pM | EC50 vs. NCI-H1703 (pM), T-cell specific killing [2]: 4.3 pM | EC50 [3]: 0.12 nM
